{"source": "patent US20220162261A1", "about": "(published 2022)", "note": "Numbered stars: 1 amine (or outer) side, 2 acyl side, 3 side chain; on linkers, the order of the positions; unused ones are H or OH. Bridge positions count the residues as written; N and C are the ends. Square brackets hold non-standard residues; d marks the D form. Primed or numbered codes have the meaning given here. Ends that are not written are not given here. * marks the point of attachment. Phe(4-OMe)″ = 4-methoxy-phenylalanine, COc1ccc(C[C@H](N[*:1])C(=O)[*:2])cc1; Phe(4-CF3) = N[C@@H](Cc1ccc(C(F)(F)F)cc1)C(=O)O; Phe(4-COOH) = N[C@@H](Cc1ccc(C(=O)O)cc1)C(=O)O; Phe(4-tBu) = CC(C)(C)c1ccc(C[C@H](N)C(=O)O)cc1; Phe(2,4-Cl2) = N[C@@H](Cc1ccc(Cl)cc1Cl)C(=O)O; Phe(2-CONH2) = NC(=O)c1ccccc1C[C@H](N)C(=O)O; Phe(4-CN) = N#Cc1ccc(C[C@H](N)C(=O)O)cc1; Phe(4-F) = N[C@@H](Cc1ccc(F)cc1)C(=O)O; Oleoyl = CCCCCCCC/C=C\\CCCCCCCC(=O)*; NMeR = CN[C@@H](CCCNC(=N)N)C(=O)O; Palmitoyl = CCCCCCCCCCCCCCCC(=O)*; Myristoyl = CCCCCCCCCCCCCC(=O)*; Tic = O=C(O)[C@@H]1Cc2ccccc2CN1; β3hE = N[C@@H](CCC(=O)O)CC(=O)O; DIG = diglycolic acid (linker); Pen = CC(C)(S)[C@H](N)C(=O)O; Isovaleryl = CC(C)CC(=O)*; Hexanoyl = CCCCCC(=O)*", "data": [{"molecular_target": "T1, human α4β7 integrin on cells (human, UniProt P13612 34-1032; P26010 20-798)", "T1 construct": "whole, on cells; also called α4β7 cell (Hu); RPMI8866 cells", "assay": "RPMI8866 cell adhesion to MAdCAM-1", "units": {"IC50": "nM"}, "values": [{"binder": "Ac-[Pen][NMeR]SDTL[Pen][Phe(2-CONH2)][dE][dK]-NH2 (disulfide 1-7; not fully specified (residue 10); printed as (Ac Pen N-Me-R S D T L Pen F(2-carbamoyl) e k NH2)2 DIG, disulfide Pen-Pen; also: homodimer (…)2 DIG: the two subunits are joined through the K10 NZ by the DIG linker)", "note": "[SEQ ID NO: 98]", "IC50": "> 50"}, {"binder": "[Pen][NMeR]SDTL[Pen][dF]-NH2 (disulfide 1-7; not fully specified (N-terminus); printed as DIG NH2 Pen N-Me-R S D T L Pen f NH2, disulfide Pen-Pen; also: DIG linker at N-terminus, number of subunits not shown, N-terminal linker printed without dimer brackets)", "note": "[SEQ ID NO: 7]", "IC50": "> 1000"}, {"binder": "XRSDTLXW (Ac Pen N-Me-R S D T L Pen W OH; disulfide Pen-Pen)", "note": "[SEQ ID NO: 127]", "IC50": "> 100"}, {"binder": "Myristoyl-[Pen][NMeR]SDTL[Pen][Phe(4-tBu)][β3hE][dK]-NH2 (disulfide 1-7)", "note": "[SEQ ID NO: 181]", "IC50": "> 1000"}, {"binder": "Ac-[Pen][NMeR]SDTL[Pen]WE-OH (disulfide 1-7; SMILES CC(=O)N[C@@H]1C(=O)N(C)[C@@H](CCCNC(=N)N)C(=O)N[C@@H](CO)C(=O)N[C@@H](CC(=O)O)C(=O)N[C@@H]([C@@H](C)O)C(=O)N[C@@H](CC(C)C)C(=O)N[C@H](C(=O)N[C@@H](Cc2c[nH]c3ccccc23)C(=O)N[C@@H](CCC(=O)O)C(=O)O)C(C)(C)SSC1(C)C)", "note": "[SEQ ID NO: 128]", "IC50": "> 50"}, {"binder": "XRSDTLXWK (not fully specified; (Ac Pen N-Me-R S D T L Pen W N-Me-K NH2)2 DIG; disulfide Pen-Pen)", "note": "[SEQ ID NO: 77]", "IC50": "> 100"}, {"binder": "XRSDTLXWK (not fully specified; (Ac Pen N-Me-R S D T L Pen W k OH)2 DIG; disulfide Pen-Pen)", "note": "[SEQ ID NO: 76]", "IC50": "> 10"}, {"binder": "Ac-[Pen][NMeR]SDTL[Pen][Phe(4-tBu)][β3hE][dK](Oleoyl) (disulfide 1-7)", "note": "[SEQ ID NO: 174]", "IC50": "> 1000"}, {"binder": "Oleoyl-[Pen][NMeR]SDTL[Pen][Phe(4-tBu)][β3hE][dK]-NH2 (disulfide 1-7)", "note": "[SEQ ID NO: 180]", "IC50": "> 1000"}, {"binder": "Ac-[Pen][NMeR]SDTL[Pen][Phe(4-CF3)][dE][dK]-NH2 (disulfide 1-7; not fully specified (residue 10); printed as (Ac Pen N-Me-R S D T L Pen F(4CF3) e k NH2)2 DIG, disulfide Pen-Pen; also: homodimer: two subunits joined by DIG linker)", "note": "[SEQ ID NO: 122]", "IC50": "> 50"}, {"binder": "Palmitoyl-[Pen][NMeR]SDTL[Pen][Phe(4-tBu)][β3hE][dK]-NH2 (disulfide 1-7)", "note": "[SEQ ID NO: 178]", "IC50": "> 1000"}, {"binder": "Ac-[Pen][NMeR]SDTL[Pen][Phe(4-tBu)][β3hE][dK](Myristoyl) (disulfide 1-7)", "note": "[SEQ ID NO: 175]", "IC50": "> 500"}, {"binder": "Ac-[Pen][NMeR]SDTL[Pen][Phe(4-tBu)][β3hE][dK](Palmitoyl) (disulfide 1-7)", "note": "[SEQ ID NO: 172]", "IC50": 965}, {"binder": "C[NMeR]SDTL[Pen]W-NH2 (disulfide 1-7; not fully specified (N-terminus); printed as PEG13 NH2 C N-Me-R S D T L Pen W NH2, disulfide C-Pen; also: N-terminal PEG13 linker, number of subunits not shown, N-terminal linker printed without dimer brackets)", "note": "[SEQ ID NO: 20]", "IC50": "> 50"}, {"binder": "C[NMeR]SDTLCW-NH2 (disulfide 1-7 (inferred); not fully specified (N-terminus); printed as DIG NH2 C N-Me-R S D T L C W NH2; also: N-terminal DIG linker, number of subunits not shown, N-terminal linker printed without dimer brackets)", "note": "[SEQ ID NO: 6]", "IC50": "> 50"}, {"binder": "Ac-[Pen][NMeR]SDTL[Pen][Phe(4-OMe)″][dE][dK]-NH2 (disulfide 1-7; not fully specified (residue 10); printed as (Ac Pen N-Me-R S D T L Pen F(4-OMe) e k NH2)2 DIG; also: homodimer: two subunits joined by DIG linker)", "note": "[SEQ ID NO: 103]", "IC50": "> 25"}, {"binder": "Ac-[Pen][NMeR]SDTL[Pen][Phe(4-CN)][β3hE][dK]-NH2 (disulfide 1-7; not fully specified (residue 10); printed as (Ac Pen N-Me-R S D T L Pen F(4-CN) b-H-E k NH2)2 DIG, disulfide Pen-Pen; also: homodimer, two subunits joined by DIG linker)", "note": "[SEQ ID NO: 139]", "IC50": "≤ 10"}, {"binder": "Ac-[Pen][NMeR]SDTL[Pen][Phe(4-COOH)][dE][dK]-NH2 (disulfide 1-7; not fully specified (residue 10); printed as (Ac Pen N-Me-R S D T L Pen F(4-COOH) e k NH2)2 DIG; also: homodimer: two subunits joined by DIG linker)", "note": "[SEQ ID NO: 100]", "IC50": "≤ 10"}, {"binder": "Ac-[Pen][NMeR]SDTL[Pen][Phe(4-tBu)][β3hE][dK](Hexanoyl) (disulfide 1-7)", "note": "[SEQ ID NO: 170]", "IC50": "> 10"}, {"binder": "Ac-[Pen][NMeR]SDTLC[Tic][dE][dK](DIG)-NH2 (disulfide 1-7; also: homodimer (…)2 DIG: the two subunits are joined through the K10 NZ by the DIG linker)", "note": "[SEQ ID NO: 93]", "IC50": "> 500"}, {"binder": "Ac-[Pen][NMeR]SDTL[Pen][Phe(4-tBu)][β3hE][dK](4,4,4‑trifluorobutyryl) (disulfide 1-7)", "note": "[SEQ ID NO: 169]", "IC50": "> 10"}, {"binder": "Hexanoyl-[Pen][NMeR]SDTL[Pen][Phe(4-tBu)][β3hE][dK]-NH2 (disulfide 1-7)", "note": "[SEQ ID NO: 176]", "IC50": "> 50"}, {"binder": "Ac-[Pen][NMeR]SDTL[Pen][Phe(2,4-Cl2)][dE][dK]-NH2 (disulfide 1-7; not fully specified (residue 10); also: homodimer: two subunits joined by DIG linker, F(2,4-ci) as printed)", "note": "[SEQ ID NO: 101]", "IC50": "> 50"}, {"binder": "Ac-[Pen][NMeR]SDTL[Pen][Phe(4-tBu)][β3hE][dK](Isovaleryl) (disulfide 1-7)", "note": "[SEQ ID NO: 171]", "IC50": "> 10"}, {"binder": "Isovaleryl-[Pen][NMeR]SDTL[Pen][Phe(4-tBu)][β3hE][dK]-NH2 (disulfide 1-7)", "note": "[SEQ ID NO: 177]", "IC50": "> 50"}, {"binder": "Ac-[dK]C[NMeR]SDTLCW[dK]-NH2 (disulfide 2-8 (inferred); not fully specified; printed as DIG (Ac k C N-Me-R S D T L C W k NH2)2 DIG, DIG printed at both ends)", "note": "[SEQ ID NO: 5]", "IC50": "> 50"}, {"binder": "Ac-[Pen][NMeR]SDTQ[Pen][Phe(4-tBu)][β3hE][dK]-NH2 (disulfide 1-7; also: homodimer: two subunits joined by IDA linker)", "note": "[SEQ ID NO: 187]", "IC50": "> 100"}, {"binder": "Ac-[Pen][NMeR]SDIL[Pen][Phe(4-tBu)][β3hE][dK]-NH2 (disulfide 1-7; also: homodimer via IDA linker carrying Alexa-647)", "note": "[SEQ ID NO: 188]", "IC50": "≤ 10"}, {"binder": "Ac-[Pen][NMeR]SDDL[Pen][Phe(4-tBu)][β3hE][dK]-NH2 (disulfide 1-7; also: homodimer via IDA linker on D-Lys10 side chains)", "note": "[SEQ ID NO: 191]", "IC50": "> 10000"}, {"binder": "Ac-[Pen][NMeR]SDDL[Pen][Phe(4-tBu)][β3hE][dK]-NH2 (disulfide 1-7; also: homodimer via IDA linker on D-Lys10 side chains, Alexa-647 label)", "note": "[SEQ ID NO: 193]", "IC50": "> 100000"}, {"binder": "Ac-[Pen][NMeR]SDTL[Pen][Phe(4-F)][dE][dK]-NH2 (disulfide 1-7; not fully specified (residue 10); printed as (Ac Pen N-Me-R S D T L Pen F(4-F) e k NH2)2 DIG, disulfide Pen-Pen; also: homodimer: two subunits joined by DIG linker)", "note": "[SEQ ID NO: 107]", "IC50": "> 25"}, {"binder": "Ac-[Pen][NMeR]SDTL[Pen][Phe(4-tBu)][dE][dK]-NH2 (disulfide 1-7; not fully specified (residue 10); printed as (Ac Pen N-Me-R S D T L Pen F(4tBu) e k NH2)2 DIG, disulfide Pen-Pen; also: homodimer: two subunits joined by DIG linker)", "note": "[SEQ ID NO: 106]", "IC50": "≤ 10"}]}]}
